{
  "source": "paper PMC7305169",
  "about": "“High flavivirus structural plasticity demonstrated by a non-spherical morphological variant” (Nature Communications, 2020)",
  "target": "T1, ZIKV envelope (E) protein, strain H/PF/2013, on purified virus particles (Zika virus (ZIKV-H/PF/2013))",
  "T1 construct": "envelope (E) protein of Zika virus strain H/PF/2013, cut product of the viral polyprotein, membrane-anchored on the virus particle; the entire E protein with its transmembrane regions was fitted; Stood on whole virus particles (catSP after 37 °C with Fab C10) together with the M protein and the lipid membrane",
  "test": "cryoEM micrographs and 2D averages; Fab mixed with purified virus at a molar ratio of 1.5 Fab to E protein; Fab added before exposure to 37 °C (DENV3-CH53489, ZIKV) or after the virus was incubated at 37 °C (DENV3-CH53489); binding seen as spiky surface and Fab density in 2D averages",
  "conditions": "both partners purified",
  "data": [
    {"binder": "Fab C10 (Fab, V domains shown, Only the variable regions of the Fab were fitted into the maps; also called antibody C10; Fab fragment of antibody C10; source: monoclonal antibody C10 obtained from Gavin Screaton; Fab made from IgG with papain conjugated resins, purified (anion-exchange, gel filtration)) VH: EVQLVESGAEVKKPGASVKVSCKASGYTFTSYAMHWVRQAPGQRLEWMGWINAGNGNTKYSQKFQDRVTITRDTSASTAYMELSSLRSEDTAIYYCARDKVDDYGDYWFPTLWYFDYWGQGTLVTVS VL: ALTQPASVSGSPGQSITISCTGTSSDVGGFNYVSWFQQHPGKAPKLMLYDVTSRPSGVSSRFSGSKSGNTASLTISGLQAEDEADYYCSSHTSRGTWVFGGGTKLTVL", "values": [
      {"measurement": "binding result", "value": "binds"}
    ]}
  ]
}
